We go through four molecules from article PMC13335484.

In data set [1] the target is T1, Gh-TDH wild-type (Grimontia hollisae, UniProt A0A377HK12 25-189). Nature of the data set: BLI; 50 mM EDTA. Conditions: protein: recombinant, chain copies: 4, label: 5'-biotin. (In general: In BLI a coated tip is dipped into the sample, and binding shifts an interference pattern.)
The target in data set [2] is T1, Gh-TDH wild-type. The data set can be described thus: BLI; 50 mM EDTA; BLI: PBS pH 7.4, 50 mM EDTA, 1 mg/mL BSA, 1000 rpm, temperature not stated; crystals: protein:ssDNA 1:1.3, hanging drop, 20 C. Particulars: protein: recombinant; chain copies: 4; label: 5'-biotin.

The Kd is a measure of binding affinity in units of concentration. Take TTTTTTTTTTTT (ssDNA) [poly(dT12)]: the Kd in data set [1] was about 3.08 µM.

As to AAAAAAAAAAAA (ssDNA) [poly(dA12)], the dissociation constant (Kd) in data set [2] was about 3.08 µM.

For CCCCCCCCCCCC (ssDNA) [poly(dC12)], the dissociation constant (Kd) in data set [1] is about 3.08 µM.

On to CTCTATAGAGTTTTCTCTATAGAGTTCT (structured_DNA) [stem-loop dsDNA with 4-nt 3'-overhang], for which, in data set [1] (hairpin, 3' overhang 4 nt), the Kd came to 14.8 µM.
